Data reported in US20200024610.

Legend:
Experiment in all cases: cell_activity
[1] = system: TALEN 5' monomer for SEQ 35 site (synthetic construct); conditions: pair with p2; corn protoplasts; unmethylated region
[2] = system: TALEN 3' monomer for SEQ 93 site (synthetic construct); conditions: pair with p3; corn protoplasts; unmethylated region
[3] = system: TALEN 3' monomer for SEQ 94 site (synthetic construct); conditions: pair with p1; corn protoplasts; unmethylated region
[4] = system: TALEN 5' monomer for SEQ 34 site (synthetic construct); conditions: pair with p4; corn protoplasts; unmethylated region

“TCTCCTATCATAACGTTTG (double strand) [TALEN site 35]” gave an activity (% integration) [1] of 16.

Sequence “TCTACTAAAGAGGTAGCAC (double strand) [TALEN site 93]” has an activity (% integration) [2] of 7.

“TGAGTTTGAGACCCACCTG (double strand) [TALEN site 94]” was tested, and the activity (% integration) [3] was 16.

Sequence “TCGTGTGACTGCTCCCAAA (double strand) [TALEN site 34]” has an activity (% integration) [4] of 7.
